Data: patent US20240390512A1, “METHODS OF TREATING CHEMOTHERAPY-RESISTANT CANCER WITH AN ANTIBODY-DRUG CONJUGATE” (DAIICHI SANKYO COMPANY, LIMITED, priority 2021, published 2024)
Residue numbers refer to the chain shown, from its start.

T1: human CDH6 (full-length and EC domain deletion mutants) (Homo sapiens, UniProt P55285, DEL269-383)
T1 construct: each one of the five EC domains could be deleted from full-length human CDH6; 3xFLAG (deletion mutants only, from the vector p3×FLAG-CMV-9); expressed in transfected cells; host or cells: 293α cells
T1 sequence (P55285 with tags, fused parts or gaps DEL269-383): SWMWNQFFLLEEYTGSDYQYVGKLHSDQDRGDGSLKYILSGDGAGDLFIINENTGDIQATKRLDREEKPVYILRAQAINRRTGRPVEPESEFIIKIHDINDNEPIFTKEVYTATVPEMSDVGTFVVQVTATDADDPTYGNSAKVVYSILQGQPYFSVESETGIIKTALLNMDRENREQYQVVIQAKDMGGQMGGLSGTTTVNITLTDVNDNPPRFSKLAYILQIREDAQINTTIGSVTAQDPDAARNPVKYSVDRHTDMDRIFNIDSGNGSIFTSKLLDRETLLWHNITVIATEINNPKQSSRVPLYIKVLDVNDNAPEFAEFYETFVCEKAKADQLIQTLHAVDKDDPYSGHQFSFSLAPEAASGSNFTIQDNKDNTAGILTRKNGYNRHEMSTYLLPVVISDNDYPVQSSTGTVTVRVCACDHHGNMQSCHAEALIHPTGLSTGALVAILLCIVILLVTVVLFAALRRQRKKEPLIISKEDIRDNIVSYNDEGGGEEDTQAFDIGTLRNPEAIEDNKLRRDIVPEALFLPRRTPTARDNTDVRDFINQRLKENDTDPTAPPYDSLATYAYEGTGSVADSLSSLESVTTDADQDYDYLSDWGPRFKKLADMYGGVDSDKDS

T2: human CDH6 (full-length and EC domain deletion mutants) (Homo sapiens, UniProt P55285)
T2 construct: each one of the five EC domains could be deleted from full-length human CDH6; 3xFLAG (deletion mutants only, from the vector p3×FLAG-CMV-9); expressed in transfected cells; host or cells: 293α cells
T2 sequence (P55285 54-790): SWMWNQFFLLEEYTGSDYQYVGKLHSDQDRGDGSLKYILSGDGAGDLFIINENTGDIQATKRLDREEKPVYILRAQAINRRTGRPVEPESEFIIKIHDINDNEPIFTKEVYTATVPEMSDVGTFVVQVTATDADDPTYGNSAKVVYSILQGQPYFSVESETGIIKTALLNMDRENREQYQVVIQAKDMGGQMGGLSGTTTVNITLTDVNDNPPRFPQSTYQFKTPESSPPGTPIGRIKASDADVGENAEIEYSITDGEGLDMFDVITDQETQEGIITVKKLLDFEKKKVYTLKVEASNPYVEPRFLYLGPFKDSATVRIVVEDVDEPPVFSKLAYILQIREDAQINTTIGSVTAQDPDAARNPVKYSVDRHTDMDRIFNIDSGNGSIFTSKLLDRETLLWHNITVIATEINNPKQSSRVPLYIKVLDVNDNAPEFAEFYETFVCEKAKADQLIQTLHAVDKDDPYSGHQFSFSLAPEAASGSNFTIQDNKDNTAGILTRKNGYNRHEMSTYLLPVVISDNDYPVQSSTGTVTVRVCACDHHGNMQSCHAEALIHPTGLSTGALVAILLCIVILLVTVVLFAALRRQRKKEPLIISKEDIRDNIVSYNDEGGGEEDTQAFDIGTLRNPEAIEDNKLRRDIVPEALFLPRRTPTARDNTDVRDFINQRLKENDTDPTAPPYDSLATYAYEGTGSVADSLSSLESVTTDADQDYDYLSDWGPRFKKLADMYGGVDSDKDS

B1: rG019: rat anti-human CDH6 monoclonal antibody produced by hybridoma rG019; variable regions SEQ ID NO: 10 and 15 (antibody, listed as Rattus norvegicus, V domains shown)
VL: DIQMTQSPSLLSASVGDRVTLNCKASQNIYKNLAWYQQKLGEGPKLLIYDANTLQTGIPSRFSGSGSGSDFTLTISSLQPEDVATYFCQQYYSGWAFGGVTNLELKRA
VH: QVQLQQSGAELVKPGSSVKISCKASGYTFTRNFMHWIKQQPGNGLEWIGWIYCGDGETEYNQKFNGKATLTADRSSSTAYMELSRLTSEDSAVYFCARGVYGGFAGGYFDFWGQGVMVTVSS
B2: rG055: rat anti-human CDH6 monoclonal antibody produced by hybridoma rG055; variable regions SEQ ID NO: 20 and 25 (antibody, listed as Rattus norvegicus, V domains shown)
VL: DVQMTHSPSYLAASPGESVSISCKTSKNISNYLVWYQQKPGEAYKLLIYSGSTLQSGTPSRFSGSGSGTDFTLTIRSLEPEDFGLYFCQQYYEKPFTFGSGTKLEIKRA
VH: EVQLQESGPGLVRPSQSLSLSCSVTDYSITSNYWGWIRRFPGNKMEWMGYITYSGYTSYNPSLQSRISITRDTSKNQFFLQLNSVTAEDTATYYCARSINHGGYSYVVDAWGPGASVTVSS
B3: rG061: rat anti-human CDH6 monoclonal antibody produced by hybridoma rG061; variable regions SEQ ID NO: 40 and 45 (antibody, listed as Rattus norvegicus, V domains shown)
VL: B2 VL with H6Q, T25A, S26T, N28S, V34A, L46V, F87S, F96L
VH: EVQLQESGPGLVKPSQSLSLTCSVTGYSITTYYWGWIRKFPGNKMEWMGYISYSGRTSYNPSLKSRMSITRDASKNQFFLQLNSVTTDDTATYYCARSPINHGGYWYFDFWGPGTMVTVSS
B4: rG056: rat anti-human CDH6 monoclonal antibody produced by hybridoma rG056; variable regions SEQ ID NO: 30 and 35 (antibody, listed as Rattus norvegicus, V domains shown)
VL: DVQMTQSPSSLAASPGESVSISCRATKSIGIYLAWYQQKPGKTFKLLIYSGSTLQSGTPSRFSGSGSGTDFTLTIRSLEPEDFGLYFCQQFYENPFTFGSGTKLEIRRA
VH: EVQLQESGPGLVKPSQSLSLTCSVTDYSITTYFWGWIRKFPGNKMEWMGYMSYRGGTSYNPSLKSRISITRDTSKNQFFLQLNSVTTEDTATYYCARCPNYGGHSLVFDYWGQGVMVTVSS

Biological target: T1, human CDH6 (full-length and EC domain deletion mutants)
Assay: Epitope analysis of rat anti-CDH6 antibody by flow cytometry using domain deletion mutants
Type: binding
Details: flow cytometry; transfected 293α cells; antibody 20 nM
Excerpt: (§1) The full-length extracellular region of human CDH6 has five extracellular domains, EC1 (SEQ ID NO: 2), EC2 (SEQ ID NO: 3), EC3 (SEQ ID NO: 4), EC4 (SEQ ID NO: 5), and EC5 (SEQ ID NO: 6). A gene to be expressed such that each one of the five EC domains could be deleted from full-length human CDH6 was synthesized by GeneArt, and incorporated into p3×FLAG-CMV-9 vectors for mammalian expression (Sigma-Aldrich Co. LLC) according to a method known to a person skilled in the art in order to produce an expression vector for each domain deletion mutant lacking any one of EC1 to EC5.
(§2) The epitopes to which the rat anti-human CDH6 antibodies bound were identified by flow cytometry analysis using a 293α cell line transfected with each EC domain deletion vector. Using Lipofectamine 2000 (Thermo Fisher Scientific Inc.), each domain deletion mutant expression vector produced in Reference Example 2)-2-1, or pcDNA3.1-hCDH6 for the expression of full-length human CDH6 was transiently introduced into a 293α cell line, which was a cell line derived from HEK293 cells by stable transfection with integrin αv and integrin […] expression vectors. The cells were cultured overnight under conditions of 37° C. and 5% CO2, and thereafter, a cell suspension was prepared. The suspension of the transfected 293α cells was centrifuged, and a supernatant was then removed. Thereafter, the cells were suspended by the addition of each of the 4 rat anti-CDH6 monoclonal antibodies (clone Nos: rG019, rG055, rG056 and rG061), which had been prepared in Reference Example 1)-7, or rat IgG control (R&D Systems, Inc.) (final concentration: 20 nM). The cells were left standing at 4° C. for 1 hour. The cells were washed twice with PBS supplemented with 5% FBS, and then suspended by the addition of Anti-Rat IgG (whole molecule)-FITC antibody produced in rabbit (Sigma-Aldrich Co. LLC) that had been 50-fold diluted with PBS supplemented with 5% FBS. The cells were left standing at 4° C. for 1 hour. The cells were washed twice with PBS supplemented with 5% FBS, followed by detection using a flow cytometer (Canto II; BD Biosciences). The data was analyzed using FlowJo (Tree Star, Inc.). In the histograms of FIGS. 2-1 to 2-6, the abscissa depicts FITC fluorescence intensity indicating the amount of the antibody bound, and the ordinate depicts cell count. […] Fluorescence intensity is enhanced when the antibody binds to full-length hCDH6 or each EC domain deletion mutant on the surface of cells. The rat IgG control binds to none of the transfected cells.

Row | binding to EC3 deletion mutant | Molecule
1 | do not bind | B1
2 | do not bind | B2
3 | do not bind | B3
4 | do not bind | B4

Biological target: T2, human CDH6 (full-length and EC domain deletion mutants)
Assay: as above
Type: binding
Details: flow cytometry; transfected 293α cells; antibody 20 nM
Excerpt: as §1, §2

Row | binding to full-length hCDH6 | Molecule
5 | bind | B1
6 | bind | B2
7 | bind | B3
8 | bind | B4

Same assay, conditions: from domain deletion mutant binding

Row | epitope on hCDH6 | Molecule
9 | EC3 | B1
10 | EC3 | B2
11 | EC3 | B3
12 | EC3 | B4
